B1: 170-21 (antibody, V domains shown)
VH: QVQLVQSGGGVVQPGRSLRLSCAASGFTFSSYGMHWVRQAPGKGLEWVAFIRYDGSNKYYADSVKGRFTISRDNSKNTLYLQMKSLRAEDTAVYYCTTHGSQDNWGQGTMVTVSS
VL: SYVLTQPPSVSGTPGQRVTISCSGGRSNIGSNTVKWYQQLPGTAPKLLIYGNDQRPSGVPDRFSGSKSGTSASLAITGVQAEDEADYYCQSYDRGFTGPRLFGTGTKVTVL
B2: 73-H2 (antibody, V domains shown)
VH: QVQLVQSGGGVVQPGRSLRLSCAASGFTFSSYGMHWVRQAPGKGLEWVAFIRYDGSNKYYADSVKGRFTISRDNSKNTLYLQMKSLRAEDTAVYYCTTSGSYDYWGQGTMVTVSS
VL: SYVLTQPPSVSGTPGQRVTISCSGGRSNIGSNTVKWYQQLPGTAPKLLIYGNDQRPSGVPDRFSGSKSGTSASLAITGVQAEDEADYYCQSYDSGFTGSRVFGTGTKVTVLG
B3: 73-D4 (antibody, V domains shown)
VH: QVQLVQSGGGVVQPGRSLRLSCAASGFTFSSYGMHWVRQAPGKGLEWVAFIRYDGSNKYYADSVKGRFTISRDNSKNTLYLQMKSLRAEDTAVYYCTTSGSYDYWGQGTMVTVSS
VL: SYVLTQPPSVSGTPGQRVTISCSGGRSNIGSNTVKWYQQLPGTAPKLLIYGNDQRPSGVPDRFSGSKSGTSASLAITGVQAEDEADYYCHSYDTKFTGSRVFGTGTKVTVLG
B4: 73-D1 (antibody, V domains shown)
VH: QVQLVQSGGGVVQPGRSLRLSCAASGFTFSSYGMHWVRQAPGKGLEWVAFIRYDGSNKYYADSVKGRFTISRDNSKNTLYLQMKSLRAEDTAVYYCTTSGSYDYWGQGTMVTVSS
VL: SYVLTQPPSVSGTPGQRVTISCSGGRSNIGSNTVKWYQQLPGTAPKLLIYGNDQRPSGVPDRFSGSKSGTSASLAITGVQAEDEADYYCHSYDSGFTGSRVFGTGTKVTVLG
B5: 73-F6 (antibody, V domains shown)
VH: QVQLVQSGGGVVQPGRSLRLSCAASGFTFSSYGMHWVRQAPGKGLEWVAFIRYDGSNKYYADSVKGRFTISRDNSKNTLYLQMKSLRAEDTAVYYCTTSGSYDYWGQGTMVTVSS
VL: SYVLTQPPSVSGTPGQRVTISCSGGRSNIGSNTVKWYQQLPGTAPKLLIYGNDQRPSGVPDRFSGSKSGTSASLAITGVQAEDEADYYCHSYDMGFTGSRVFGTGTKVTVLG
B6: 73-C2 (antibody, V domains shown)
VH: QVQLVQSGGGVVQPGRSLRLSCAASGFTFSSYGMHWVRQAPGKGLEWVAFIRYDGSNKYYADSVKGRFTISRDNSKNTLYLQMKSLRAEDTAVYYCTTSGSYDYWGQGTMVTVSS
VL: SYVLTQPPSVSGTPGQRVTISCSGGRSNIGSNTVKWYQQLPGTAPKLLIYGNDQRPSGVPDRFSGSKSGTSASLAITGVQAEDEADYYCQSYDSEFTGSRVFGTGTKVTVLG
B7: 73-G5 (antibody, V domains shown)
VH: QVQLVQSGGGVVQPGRSLRLSCAASGFTFSSYGMHWVRQAPGKGLEWVAFIRYDGSNKYYADSVKGRFTISRDNSKNTLYLQMKSLRAEDTAVYYCTTSGSYDYWGQGTMVTVSS
VL: SYVLTQPPSVSGTPGQRVTISCSGGRSNIGSNTVKWYQQLPGTAPKLLIYGNDQRPSGVPDRFSGSKSGTSASLAITGVQAEDEADYYCHSSDSDSTGSRVFGTGTKVTVLG
B8: 73-C5 (antibody, V domains shown)
VH: QVQLVQSGGGVVQPGRSLRLSCAASGFTFSSYGMHWVRQAPGKGLEWVAFIRYDGSNKYYADSVKGRFTISRDNSKNTLYLQMKSLRAEDTAVYYCTTSGSYDYWGQGTMVTVSS
VL: SYVLTQPPSVSGTPGQRVTISCSGGRSNIGSNTVKWYQQLPGTAPKLLIYGNDQRPSGVPDRFSGSKSGTSASLAITGVQAEDEADYYCHSHDRDFTGSRVFGTGTKVTVLG
B9: 73-D5 (antibody, V domains shown)
VH: QVQLVQSGGGVVQPGRSLRLSCAASGFTFSSYGMHWVRQAPGKGLEWVAFIRYDGSNKYYADSVKGRFTISRDNSKNTLYLQMKSLRAEDTAVYYCTTSGSYDYWGQGTMVTVSS
VL: SYVLTQPPSVSGTPGQRVTISCSGGRSNIGSNTVKWYQQLPGTAPKLLIYGNDQRPSGVPDRFSGSKSGTSASLAITGVQAEDEADYYCHSSDSGFTGSRVFGTGTKVTVLG
B10: 73-B2 (antibody, V domains shown)
VH: QVQLVQSGGGVVQPGRSLRLSCAASGFTFSSYGMHWVRQAPGKGLEWVAFIRYDGSNKYYADSVKGRFTISRDNSKNTLYLQMKSLRAEDTAVYYCTTSGSYDYWGQGTMVTVSS
VL: SYVLTQPPSVSGTPGQRVTISCSGGRSNIGSNTVKWYQQLPGTAPKLLIYGNDQRPSGVPDRFSGSKSGTSASLAITGVQAEDEADYYCHSSESGFTGSRVFGTGTKVTVLG
B11: 73-C6 (antibody, V domains shown)
VH: QVQLVQSGGGVVQPGRSLRLSCAASGFTFSSYGMHWVRQAPGKGLEWVAFIRYDGSNKYYADSVKGRFTISRDNSKNTLYLQMKSLRAEDTAVYYCTTSGSYDYWGQGTMVTVSS
VL: SYVLTQPPSVSGTPGQRVTISCSGGRSNIGSNTVKWYQQLPGTAPKLLIYGNDQRPSGVPDRFSGSKSGTSASLAITGVQAEDEADYYCQSYDTGFTGSRVFGTGTKVTVLG
B12: 73-E3 (antibody, V domains shown)
VH: QVQLVQSGGGVVQPGRSLRLSCAASGFTFSSYGMHWVRQAPGKGLEWVAFIRYDGSNKYYADSVKGRFTISRDNSKNTLYLQMKSLRAEDTAVYYCTTSGSYDYWGQGTMVTVSS
VL: SYVLTQPPSVSGTPGQRVTISCSGGRSNIGSNTVKWYQQLPGTAPKLLIYGNDQRPSGVPDRFSGSKSGTSASLAITGVQAEDEADYYCQSYDSDFTGSRVFGTGTKVTVLG
B13: 73-H3 (antibody, V domains shown)
VH: QVQLVQSGGGVVQPGRSLRLSCAASGFTFSSYGMHWVRQAPGKGLEWVAFIRYDGSNKYYADSVKGRFTISRDNSKNTLYLQMKSLRAEDTAVYYCTTSGSYDYWGQGTMVTVSS
VL: SYVLTQPPSVSGTPGQRVTISCSGGRSNIGSNTVKWYQQLPGTAPKLLIYGNDQRPSGVPDRFSGSKSGTSASLAITGVQAEDEADYYCHSYDNGFTGSRVFGTGTKVTVLG
B14: 73-F3 (antibody, V domains shown)
VH: QVQLVQSGGGVVQPGRSLRLSCAASGFTFSSYGMHWVRQAPGKGLEWVAFIRYDGSNKYYADSVKGRFTISRDNSKNTLYLQMKSLRAEDTAVYYCTTSGSYDYWGQGTMVTVSS
VL: SYVLTQPPSVSGTPGQRVTISCSGGRSNIGSNTVKWYQQLPGTAPKLLIYGNDQRPSGVPDRFSGSKSGTSASLAITGVQAEDEADYYCQSYDAPWSGSRVFGTGTKVTVLG
B15: 73-G3 (antibody, V domains shown)
VH: QVQLVQSGGGVVQPGRSLRLSCAASGFTFSSYGMHWVRQAPGKGLEWVAFIRYDGSNKYYADSVKGRFTISRDNSKNTLYLQMKSLRAEDTAVYYCTTSGSYDYWGQGTMVTVSS
VL: SYVLTQPPSVSGTPGQRVTISCSGGRSNIGSNTVKWYQQLPGTAPKLLIYGNDQRPSGVPDRFSGSKSGTSASLAITGVQAEDEADYYCHSYDTRFTGSRVFGTGTKVTVLG
B16: 73-G2 (antibody, V domains shown)
VH: QVQLVQSGGGVVQPGRSLRLSCAASGFTFSSYGMHWVRQAPGKGLEWVAFIRYDGSNKYYADSVKGRFTISRDNSKNTLYLQMKSLRAEDTAVYYCTTSGSYDYWGQGTMVTVSS
VL: SYVLTQPPSVSGTPGQRVTISCSGGRSNIGSNTVKWYQQLPGTAPKLLIYGNDQRPSGVPDRFSGSKSGTSASLAITGVQAEDEADYYCHTNDSGFTGSRVFGTGTKVTVLG
B17: 73-G6 (antibody, V domains shown)
VH: QVQLVQSGGGVVQPGRSLRLSCAASGFTFSSYGMHWVRQAPGKGLEWVAFIRYDGSNKYYADSVKGRFTISRDNSKNTLYLQMKSLRAEDTAVYYCTTSGSYDYWGQGTMVTVSS
VL: SYVLTQPPSVSGTPGQRVTISCSGGRSNIGSNTVKWYQQLPGTAPKLLIYGNDQRPSGVPDRFSGSKSGTSASLAITGVQAEDEADYYCQSYNTDFTGSRVFGTGTKVTVLG
B18: 73-E6 (antibody, V domains shown)
VH: QVQLVQSGGGVVQPGRSLRLSCAASGFTFSSYGMHWVRQAPGKGLEWVAFIRYDGSNKYYADSVKGRFTISRDNSKNTLYLQMKSLRAEDTAVYYCTTSGSYDYWGQGTMVTVSS
VL: SYVLTQPPSVSGTPGQRVTISCSGGRSNIGSNTVKWYQQLPGTAPKLLIYGNDQRPSGVPDRFSGSKSGTSASLAITGVQAEDEADYYCHSYESGFTGSRVFGTGTKVTVLG
B19: 73-G4 (antibody, V domains shown)
VH: QVQLVQSGGGVVQPGRSLRLSCAASGFTFSSYGMHWVRQAPGKGLEWVAFIRYDGSNKYYADSVKGRFTISRDNSKNTLYLQMKSLRAEDTAVYYCTTSGSYDYWGQGTMVTVSS
VL: SYVLTQPPSVSGTPGQRVTISCSGGRSNIGSNTVKWYQQLPGTAPKLLIYGNDQRPSGVPDRFSGSKSGTSASLAITGVQAEDEADYYCQSYDMRFTGSRVFGTGTKVTVLG
B20: 73-F5 (antibody, V domains shown)
VH: QVQLVQSGGGVVQPGRSLRLSCAASGFTFSSYGMHWVRQAPGKGLEWVAFIRYDGSNKYYADSVKGRFTISRDNSKNTLYLQMKSLRAEDTAVYYCTTSGSYDYWGQGTMVTVSS
VL: SYVLTQPPSVSGTPGQRVTISCSGGRSNIGSNTVKWYQQLPGTAPKLLIYGNDQRPSGVPDRFSGSKSGTSASLAITGVQAEDEADYYCQSYDSDFTGSKVFGTGTKVTVLG

The experiment deals with T1, human interleukin 12 (human, UniProt P29459 23-219; P29460 23-328).
T1 construct: heterodimer of p35 and p40 linked by a disulfide bridge; also called hIL-12; IL-12
T1 sequence (looked up) 1: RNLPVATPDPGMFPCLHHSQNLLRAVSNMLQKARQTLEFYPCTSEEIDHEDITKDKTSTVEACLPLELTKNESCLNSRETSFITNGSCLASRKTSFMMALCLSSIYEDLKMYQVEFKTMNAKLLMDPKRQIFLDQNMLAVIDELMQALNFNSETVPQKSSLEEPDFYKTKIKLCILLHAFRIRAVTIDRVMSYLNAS
T1 sequence (looked up) 2: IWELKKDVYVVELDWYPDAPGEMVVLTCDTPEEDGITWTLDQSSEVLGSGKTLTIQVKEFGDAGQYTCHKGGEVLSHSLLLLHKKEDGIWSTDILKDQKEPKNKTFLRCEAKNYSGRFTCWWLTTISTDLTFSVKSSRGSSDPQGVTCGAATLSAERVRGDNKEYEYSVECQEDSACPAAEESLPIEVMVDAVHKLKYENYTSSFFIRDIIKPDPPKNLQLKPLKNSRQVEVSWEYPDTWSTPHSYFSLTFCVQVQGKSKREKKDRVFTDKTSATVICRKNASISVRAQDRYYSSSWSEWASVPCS
Kind of experiment: SPR (BIAcore).
B1 registered a koff of 0.00389 s⁻¹.
For B2 the value was 0.00593 s⁻¹.
For B3 the value was 0.00536 s⁻¹; for B4, 0.00399 s⁻¹.
For B5 the value was 0.00587 s⁻¹; for B6, 0.00379 s⁻¹.
Consider B7, for which the koff stood at 0.00601 s⁻¹.
For B8 the value was 0.00484 s⁻¹; for B9, 0.00357 s⁻¹.
For B10 the value was 0.00207 s⁻¹; for B11, 0.00396 s⁻¹.
For B12 the value was 0.00498 s⁻¹; for B13, 0.00685 s⁻¹.
Take B14: the koff is 0.00708 s⁻¹.
For B15 the value was 0.0035 s⁻¹.
As for B16, the koff was found to be 0.00398 s⁻¹. The koff values of the last two molecules are within 1.5-fold of each other.
For B17 the value was 0.0063 s⁻¹; for B18, 0.00417 s⁻¹; for B19, 0.00658 s⁻¹.
For B20 the value was 0.00374 s⁻¹.

These data come from patent publication US20120219562A1 (AbbVie / Abbott, published 2012).
